Tests used:
Experiment in all cases: cell-based or functional assay
[1] = target: B7-1 (CD28 ligand) on mouse lymph node accessory cells (mouse) (UniProt Q00609)
[2] = target: B7-2 (CD28 ligand) on mouse lymph node accessory cells (mouse) (UniProt P42082)
[3] = target: Fas (human) (UniProt P25445)
UniProt P25445, sequence (P25445 26-335): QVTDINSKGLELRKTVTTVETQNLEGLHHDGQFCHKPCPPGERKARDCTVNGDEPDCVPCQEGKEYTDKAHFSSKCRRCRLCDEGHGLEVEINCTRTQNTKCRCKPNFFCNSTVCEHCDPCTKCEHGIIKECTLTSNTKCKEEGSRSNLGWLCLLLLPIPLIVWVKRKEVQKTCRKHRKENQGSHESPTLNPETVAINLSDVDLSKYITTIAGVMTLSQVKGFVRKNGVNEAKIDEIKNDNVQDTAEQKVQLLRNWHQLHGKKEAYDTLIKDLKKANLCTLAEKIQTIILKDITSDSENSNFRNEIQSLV

UniProt Q00609, sequence (Q00609 38-306): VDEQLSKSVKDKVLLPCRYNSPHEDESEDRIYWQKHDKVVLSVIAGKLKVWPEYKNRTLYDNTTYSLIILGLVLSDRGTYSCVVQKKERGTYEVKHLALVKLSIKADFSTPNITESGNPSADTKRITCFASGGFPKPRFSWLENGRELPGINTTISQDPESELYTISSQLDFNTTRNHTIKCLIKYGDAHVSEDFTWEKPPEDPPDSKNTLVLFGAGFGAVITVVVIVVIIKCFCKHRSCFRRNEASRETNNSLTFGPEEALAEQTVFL
UniProt P42082, sequence (P42082 24-309): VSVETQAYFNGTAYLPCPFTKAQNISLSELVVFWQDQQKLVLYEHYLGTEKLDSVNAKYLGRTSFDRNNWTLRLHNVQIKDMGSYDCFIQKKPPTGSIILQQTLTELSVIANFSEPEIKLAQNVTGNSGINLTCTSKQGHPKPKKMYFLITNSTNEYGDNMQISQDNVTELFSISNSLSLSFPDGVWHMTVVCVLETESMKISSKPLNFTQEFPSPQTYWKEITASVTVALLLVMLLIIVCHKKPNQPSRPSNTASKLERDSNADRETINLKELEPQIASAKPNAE

Substance	viability of the activated T cells at 72 hrs [1]	viability of the activated T cells at 72 hrs [2]	viability of Jurkat Neo control clones after Fas antibody at 10 ng/ml [3]
CTLA4Ig (from Repligen) (Fc fusion)	20%	20%	–
CH-11 anti-Fas monoclonal antibody (Panvera)	–	–	< 10%
